Experimental data as given in US20040059519A1.
Values joined by “and” are separate entries in the source; they are usually repeats but may differ in a detail not shown here. Equal entries are not always repeated. Each block holds one substance with its values, some of them ahead of it.

Tests used:
[1] = biological target: Neutravidin (deglycosylated avidin) (UniProt P02701); experiment: single-analyte, Neutravidin bead 40/50 without peptide, flow cytometry
[2] = biological target: Neutravidin (deglycosylated avidin) (UniProt P02701); experiment: single-analyte, Neutravidin bead 70/70 without peptide, flow cytometry
[3] = biological target: Neutravidin (deglycosylated avidin) (UniProt P02701); experiment: multiplex, Neutravidin bead 40/70 without peptide, flow cytometry
Alpha fetoprotein [4] = biological target: Alpha fetoprotein (UniProt P02771); experiment: multiplex sandwich, S10473 capture beads; AFP 8 ng/mL, washed
Sequence of UniProt P02771 (P02771 19-609 limits assumed): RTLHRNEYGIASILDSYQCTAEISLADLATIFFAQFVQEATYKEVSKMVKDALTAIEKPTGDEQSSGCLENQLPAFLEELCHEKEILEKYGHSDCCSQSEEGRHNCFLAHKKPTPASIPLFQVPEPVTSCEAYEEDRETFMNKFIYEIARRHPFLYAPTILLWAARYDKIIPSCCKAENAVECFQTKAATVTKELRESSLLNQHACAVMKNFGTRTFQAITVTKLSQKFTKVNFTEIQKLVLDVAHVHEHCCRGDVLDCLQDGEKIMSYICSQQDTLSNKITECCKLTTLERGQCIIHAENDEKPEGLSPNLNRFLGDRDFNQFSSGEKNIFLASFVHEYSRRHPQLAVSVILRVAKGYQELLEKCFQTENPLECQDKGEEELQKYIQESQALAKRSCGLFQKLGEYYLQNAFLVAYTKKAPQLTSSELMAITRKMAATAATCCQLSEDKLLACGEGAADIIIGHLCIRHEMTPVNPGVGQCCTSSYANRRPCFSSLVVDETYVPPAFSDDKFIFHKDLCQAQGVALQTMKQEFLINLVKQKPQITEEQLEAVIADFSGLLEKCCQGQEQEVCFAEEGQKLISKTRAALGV

Alpha fetoprotein [5] = biological target: Alpha fetoprotein (UniProt P02771); experiment: multiplex sandwich, S10473 capture beads; AFP 0 ng/mL, no wash
[6] = biological target: Human chorionic gonadotropin (human) (UniProt P01215); experiment: anti-AFP capture beads, flow cytometry; hCG 1000.0 ng/mL, anti-AFP probe
Sequence of UniProt P01215 (P01215 25-116, chain 1 of 2, other chains not shown): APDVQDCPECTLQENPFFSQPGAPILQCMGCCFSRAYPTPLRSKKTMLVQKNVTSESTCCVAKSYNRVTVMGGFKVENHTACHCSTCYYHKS

Alpha fetoprotein [7] = biological target: Alpha fetoprotein (UniProt P02771); experiment: multiplex no-wash sandwich, S10473 beads; Negative serum, AFP 2 U/mL
Alpha fetoprotein [8] = biological target: Alpha fetoprotein (UniProt P02771); experiment: multiplex no-wash sandwich, S10473 beads; serum Level 3D, AFP 111.5 U/mL
Alpha fetoprotein [9] = biological target: Alpha fetoprotein (UniProt P02771); experiment: multiplex no-wash sandwich, S10473 beads; Unknown serum, AFP computed 39.59 U/mL
Alpha fetoprotein [10] = biological target: Alpha fetoprotein (UniProt P02771); experiment: multiplex sandwich, S10473 capture beads; AFP 31 ng/mL, no wash
Alpha fetoprotein [11] = biological target: Alpha fetoprotein (UniProt P02771); experiment: multiplex sandwich, S10473 capture beads; AFP 500 ng/mL, washed
[12] = biological target: Human chorionic gonadotropin (human) (UniProt P01215); experiment: sandwich, MAB602 capture beads, flow cytometry; hCG 20 ng/mL
[13] = biological target: Human chorionic gonadotropin (human) (UniProt P01215); experiment: sandwich, MAB602 capture beads, flow cytometry; hCG 2 ng/mL
[14] = biological target: Human chorionic gonadotropin (human) (UniProt P01215); experiment: multiplex sandwich, MAB602 capture beads; hCG 125 ng/mL, washed
Alpha fetoprotein [15] = biological target: Alpha fetoprotein (UniProt P02771); experiment: anti-AFP capture beads, flow cytometry; AFP 1.0 ng/mL, anti-hCG probe
[16] = biological target: Human chorionic gonadotropin (human) (UniProt P01215); experiment: sandwich, MAB602 capture beads, flow cytometry; hCG 20000 ng/mL
[17] = biological target: Human chorionic gonadotropin (human) (UniProt P01215); experiment: bead sandwich, flow cytometry; capture A1 beads, no hCG (background)

Sequence of UniProt P02701 (P02701 25-152 limits assumed): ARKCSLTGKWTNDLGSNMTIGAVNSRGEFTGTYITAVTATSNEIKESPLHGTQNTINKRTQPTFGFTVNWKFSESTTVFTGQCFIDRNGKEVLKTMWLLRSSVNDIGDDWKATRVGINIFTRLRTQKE

- MIF of Fm [1]: 47
- MIF of Fm [2]: 66
- MIF of Fm [3]: 34
Substance: MAB 384, Bodipy FL-X labeled (antibody)

- MIF of Fm (Alpha fetoprotein [4]): 205
- MIF of Fm (Alpha fetoprotein [5]): 15
- MIF of Fm [6]: 78
- MIF AVG (Alpha fetoprotein [7]): 12.3
- MIF of FL1 (Alpha fetoprotein [7]): 11 and 13
- MIF AVG (Alpha fetoprotein [8]): 552
- MIF of FL1 (Alpha fetoprotein [8]): 535 and 562 and 559
- MIF AVG (Alpha fetoprotein [9]): 276
- MIF of FL1 (Alpha fetoprotein [9]): 268 and 274 and 286
- MIF of Fm (Alpha fetoprotein [10]): 639
- MIF of Fm (Alpha fetoprotein [11]): 1380
Substance: M20077 affinity purified polyclonal anti-AFP antibody, Bodipy FL-CASE labeled

- MIF of Fm [12]: 8500 and 8660
- MIF of Fm [13]: 1290 and 1380
- MIF of Fm [14]: 2950
- MIF of Fm (Alpha fetoprotein [15]): 50
- MIF of Fm [16]: 9340 and 9220
- MIF of Fm [17]: 108
Substance: AB633 affinity purified polyclonal anti-hCG antibody, Bodipy FL-CASE labeled
